Biological target: Cer-PLN-AFA and YFP-PLN-AFA: canine phospholamban AFA mutant fused at its N-terminus with mCerulean or enhanced YFP (canine) (UniProt P61012)
Experiment: FRET or BRET; in-cell binding assay, acceptor sensitization FRET in living AAV-293 cells co-transfected with Cer-PLN-AFA and YFP-PLN-AFA (1:5); FRET against relative protein concentration cell by cell, hyperbolic fit; apparent KD1 of the PLN-PLN oligomer; with or without 1 uM 50-mer ssDNA

Cer-PLN-AFA and YFP-PLN-AFA: canine phospholamban AFA mutant fused at its N-terminus with mCerulean or enhanced YFP, sequence (P61012 whole entry, stated change not applied, the tested form may be a part): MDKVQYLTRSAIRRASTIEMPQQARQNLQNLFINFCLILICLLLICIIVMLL

## Cer-PLN-AFA and YFP-PLN-AFA: canine phospholamban AFA mutant fused at its N-terminus with mCerulean or enhanced YFP (from UniProt P61012 1-52) (natural protein)
  increase in PLN oligomerization with 50-mer ssDNA against no ssDNA: 20%

Reference: publication PMC4543939
